Measured values reported in patent US12276665B2, “Methods for screening and identifying agents that inhibit or modulate the nuclear egress complex of herpesviruses” (priority 2018, dated 2025).
Non-standard residues stand in square brackets, D forms with d. Residues, ends and D or L forms follow the SMILES beside them. *: point of attachment. Biotin = O=C1N[C@H]2[C@H](CS[C@H]2CCCCC(=O)*)N1; AEEA = NCCOCCOCC(=O)O

Key:
[1] = molecular target: pUL50-pUL53 interaction (HCMV NEC) (Human cytomegalovirus, UniProt P16791); test: competitive binding assay
Procedure: These experiments were designed to address the peptide-protein interactions for each virus, as well as the ability of the hook peptides and proteins to cross-interact with the groove proteins of the respective other virus.
After blocking with BSA plates were incubated with 50 μL/well of inhibitor solutions at different concentration ranges, and 50 μL/well of His-tagged pUL50 (0.16 μg/mL) and BFRF1 (5 μg/mL), respectively. His-tagged pUL50 and BFRF1 were detected and plates developed as described above. IC50-values were determined using the regression wizard of GraphPad Prism. All data points present means of duplicates. Inhibition was calculated according to the following formula: % Inhibition=[1−(Apeptide−Ablank1)/(A100%−Ablank2)]×100, in which “100%” is a sample without inhibitor, “blank1” is a sample without coated hook protein and “blank2” is a sample without coated hook protein and without inhibitor.

pUL53 = pUL53 (Human cytomegalovirus, UniProt P16794); details: ratio of EC50 values
Procedure: Plates were washed four times with 0.01% Tween 20 in 0.1 M phosphate buffer pH 7.2 (300 μL/well) after each incubation step. […] All data points present means of duplicates.

EBV BFLF2 = molecular target: T1, EBV BFLF2 (Epstein-Barr virus, UniProt P0CK47); test: coimmunoprecipitation (CoIP), proteins from transient transfection; assay type: binding; details: 293T cells
T1 construct: expressed in transfected cells; host or cells: 293T
T1 sequence (P0CK47 whole entry, looked up): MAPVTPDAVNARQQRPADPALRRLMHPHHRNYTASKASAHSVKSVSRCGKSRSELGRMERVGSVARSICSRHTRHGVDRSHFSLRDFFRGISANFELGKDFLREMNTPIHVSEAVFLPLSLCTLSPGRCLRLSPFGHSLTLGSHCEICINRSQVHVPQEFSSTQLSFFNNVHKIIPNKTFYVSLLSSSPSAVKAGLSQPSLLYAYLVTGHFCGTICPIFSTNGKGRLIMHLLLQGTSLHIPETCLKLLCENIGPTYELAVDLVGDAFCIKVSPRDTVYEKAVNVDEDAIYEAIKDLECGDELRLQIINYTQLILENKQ
Source text: (§1) Two or three dpt cells were harvested.

MCMV pM53 = test: as above; assay type: binding; details: 293T cells
Source text: as §1

VZV Orf27 = molecular target: T2, VZV Orf27 (Varicella-zoster virus, UniProt P09283); test: as above; assay type: binding; details: 293T cells
T2 construct: expressed in transfected cells; host or cells: 293T
Source text: as §1

HCMV pUL53 = HCMV pUL53 (Human cytomegalovirus, UniProt P16794); details: 293T cells, transient transfection
Procedure: CoIP analyses were performed to investigate specific protein-protein interactions (Bannister and Kouzarides, 1996). To this end, 293T cells (5×10^6) were transfected with the plasmids coding for the proteins of interest. One day before CoIP, 50 mg/ml protein A sepharose or 25 μl of dynabeads Protein A were incubated with the appropriate antibody in 500 μl CoIP buffer at 4° C. overnight. Two or three dpt cells were harvested. Lysis was performed using 500 μl CoIP buffer containing protease inhibitors and PMSF on ice for 20 min, sonificated (20 impulses, 80%) and centrifuged (14000 rpm, 10 min, 4° C.). For expression controls 50 μl aliquots of each supernatant were taken and boiled in 50 μl 2× boiling mix for 10 min at 95° C. The antibody-loaded dynabeads or sepharose beads (washed three times with CoIP buffer) were incubated with the lysates for 1.5 h at 4° C. Thereafter, samples were washed with CoIP buffer five times, resuspended in 30 μl 2× boiling mix and boiled 10 min at 95° C. Separation and analyzation of protein complexes were performed using SDS-PAGE and Wb.
Protein samples obtained from CoIP or cell lysates were separated by SDS-PAGE and transferred to a nitrocellulose membrane by electroblotting (200-300 mA for 80 min). […] Finally, the membranes were washed again three times with PBSo over 30 min, shortly incubated within a freshly prepared ECL solution (10 ml ECL solution A, 100 μl ECL solution B and 3.1 μl H2O2) and the proteins were detected by the use of the FUJIFILM Luminescent Image Analyzer LAS-1000 (FUJIFILM Europe GmbH, Düsseldorf, Germany). […]
At three dpt, cells were lysed and HA-tagged proteins were precipitated using pAb-HA or a rabbit antibody Fc fragment as specificity control. […] Lysate controls taken prior to the IP and CoIP samples were subjected to standard Wb analysis and protein expression was analyzed using tag- or protein-specific antibodies.

Molecule | IC50 [1] | fold lower inhibitory activity than the HCMV counterpart (hook protein or hook peptide) ([1]; ratio of IC50 values) | fold stronger interaction than the BFRF1-BFLF2 interaction of EBV (pUL53) | CoIP interaction with EBV BFLF2 (EBV BFLF2) | CoIP interaction with MCMVpM53 (MCMV pM53) | CoIP interaction with VZV Orf27 (VZV Orf27) | CoIP interaction with HCMV pUL53 (HCMV pUL53)
CC[C@H](C)[C@H](NC(=O)CNC(=O)[C@H](CCCNC(=N)N)NC(=O)[C@H](Cc1ccccc1)NC(=O)[C@H](Cc1ccccc1)NC(=O)[C@H](CC(=O)O)NC(=O)[C@H](CCCNC(=N)N)NC(=O)[C@H](CC(C)C)NC(=O)[C@H](CO)NC(=O)[C@H](Cc1ccccc1)NC(=O)[C@H](Cc1c[nH]cn1)NC(=O)[C@H](CO)NC(C)=O)C(=O)N[C@@H](CO)C(=O)N[C@@H](C)C(=O)N[C@@H](CC(N)=O)C(=O)N[C@@H](Cc1ccccc1)C(=O)N[C@@H](CCC(=O)O)C(=O)N[C@@H](CC(C)C)C(=O)NCC(=O)N[C@@H](CCCCN)C(=O)N[C@@H](CC(=O)O)C(=O)N[C@@H](Cc1ccccc1)C(=O)N[C@@H](CC(C)C)C(=O)N[C@@H](CCCNC(=N)N)C(=O)N[C@@H](CCC(=O)O)C(=O)N[C@@H](CCSC)C(=O)N[C@@H](CC(N)=O)C(=O)N[C@H](C(=O)N1CCC[C@H]1C(=O)NCCOCCOCC(=O)N[C@@H](CCCCNC(=O)CCCC[C@@H]1SC[C@@H]2NC(=O)N[C@@H]21)C(N)=O)[C@@H](C)O [EBV hook peptide] (Ac-SHFSLRDFFRGISANFELGKDFLREMNTP[AEEA]K(Biotin)-NH2) | 2600 nM | approximately 22 fold |  |  |  |  | 
CC[C@H](C)[C@H](NC(=O)[C@H](C)NC(=O)[C@H](CCSC)NC(=O)[C@H](CCCCN)NC(=O)[C@H](CCSC)NC(=O)[C@H](CCSC)NC(=O)[C@H](CC(N)=O)NC(=O)[C@H](CC(C)C)NC(=O)[C@H](Cc1ccc(O)cc1)NC(=O)[C@H](CCCCN)NC(=O)[C@H](CC(C)C)NC(=O)[C@H](CCC(=O)O)NC(=O)[C@H](CC(C)C)NC(=O)[C@H](CCC(=O)O)NC(=O)[C@@H]1CCCN1C(=O)[C@H](Cc1c[nH]cn1)NC(=O)[C@H](CCC(=O)O)NC(=O)[C@H](CCCNC(=N)N)NC(=O)[C@H](Cc1ccccc1)NC(=O)[C@@H](NC(=O)[C@H](CC(=O)O)NC(=O)[C@H](Cc1c[nH]cn1)NC(=O)[C@H](CC(C)C)NC(=O)[C@H](CC(=O)O)NC(=O)[C@H](Cc1c[nH]cn1)NC(=O)[C@H](CC(C)C)NC(=O)[C@@H](NC(=O)[C@H](CC(C)C)NC(C)=O)[C@@H](C)O)[C@@H](C)CC)C(=O)N[C@H](C(=O)NCCOCCOCC(=O)N[C@@H](CCCCNC(=O)CCCC[C@@H]1SC[C@@H]2NC(=O)N[C@@H]21)C(N)=O)[C@@H](C)O [HCMV hook peptide] | 114 nM |  |  |  |  |  | 
pUL50: HCMV groove protein of the core NEC; His-tagged in ELISA, HA-tagged in CoIP |  |  | approximately 20 fold | − | + | − | +
MCMV pM50: MCMV core NEC protein, HA-tagged, transiently expressed (protein, Mouse cytomegalovirus 1, MCMV core NEC protein, HA-tagged, transiently expressed) MEIDKNVGADLISNTRRILRLDENELRITDTALICKNPNYSLCDAMLTTDIVYPVEYLLSYWECRSGRTACFVFKNTGCRVSLSCYIGFPERLKDLKRVCDFNFLSVNEALVVTLADIERIKPCDKGVLTNCVVRKSNSGMSYNIEVVAFGPDNEAEYQALLRDIYARRMTSVPTDCGSLICRRARCLAAAPPRRPPPPPPPGQRWGSLRKHGPVLTRRYAGGGGAAKNQPAAASPTSTSTSSPAAPSRDQDQTQRPPPAGDTNVTAAETTYSERTISFLTRHANAIHCALILAAAIALVLLWLLYWHAARSAGHP |  |  |  | − | + |  | +
BFRF1: EBV groove protein of the core NEC; His-tagged in ELISA, HA-tagged in CoIP (protein, Human herpesvirus 4, EBV groove protein of the core NEC; His-tagged in ELISA, HA-tagged in CoIP) MASPEERLLDELNNVIVSFLCDSGSLEVERCSGAHVFSRGSSQPLCTVKLRHGQIYHLEFVYKFLAFKLKNCNYPSSPVFVISNNGLATTLRCFLHEPSGLRSGQSGPCLGLSTDVDLPKNSIIMLGQDDFIKFKSPLVFPAELDLLKSMVVCRAYITEHRTTMQFLVFQAANAQKASRVMDMISDMSQQLSRSGQVEDTGARVTGGGGPRPGVTHSGCLGDSHVRGRGGWDLDNFSEAETEDEASYAPWRDKDSWSESEAAPWKKELVRHPIRRHRTRETRRMRGSHSRVEHVPPETRETVVGGAWRYSWRATPYLARVLAVTAVALLLMFLRWT |  |  |  | + |  |  | −
